Source: US20170101472A1

Tests used:
[1] = molecular target: HEK293-hLAG3 and HEK293-mfLAG3 cells; assay: cell binding assay of Table 12, LAG3-expressing HEK293 cells against parental HEK293 cells
[2] = molecular target: cynomolgus LAG3 on activated CD4+ and CD8+ cynomolgus T cells (cynomolgus); assay: FACS, stimulated cynomolgus CD4+ T cells, donor 1

ratio of binding above the HEK293 parental cells [1] [fold] | Ratio of MFI (11 nM/0 nM) [2] | Substance
0.7 to 1.1 |  | H4H isotype control and the H4sH isotype control
 | 1 | hIgG4 isotype control (antibody)
